Measured values: publication PMC5324674, “NBP35 interacts with DRE2 in the maturation of cytosolic iron‐sulphur proteins in Arabidopsis thaliana” (The Plant Journal, 2017)

Molecular target: T1, Purified NBP35 (His‐tagged, from E. coli) (Arabidopsis thaliana, UniProt Q8H1Q2 1-350)
T1 construct: The SPR methods say only 'purified NBP35'; also called wild‐type NBP35; source: E. coli, purified (His-Trap HP column, desalted on PD10)
T1 sequence (looked up): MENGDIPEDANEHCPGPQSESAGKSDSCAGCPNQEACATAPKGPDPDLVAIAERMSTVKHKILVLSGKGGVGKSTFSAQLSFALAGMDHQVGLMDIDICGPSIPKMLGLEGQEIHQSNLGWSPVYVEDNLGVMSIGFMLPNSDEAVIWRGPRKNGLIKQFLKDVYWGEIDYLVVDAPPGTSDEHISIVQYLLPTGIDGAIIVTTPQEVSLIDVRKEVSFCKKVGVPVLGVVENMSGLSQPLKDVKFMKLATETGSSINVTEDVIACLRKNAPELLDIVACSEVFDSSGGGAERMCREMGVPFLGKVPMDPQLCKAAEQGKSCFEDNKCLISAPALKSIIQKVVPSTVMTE
Experiment: SPR; Biacore T200, Streptavidin chip; Strep-tagged DRE2 captured from E. coli cell extract (about 1700 RU); purified NBP35 0-45 uM injected, multi-cycle; 25°C; 20 mM Tris-HCl pH 8, 0.15 M NaCl, 5% glycerol; equilibrium response, Affinity Fit, 1:1 model
Details: one partner purified

B1: Strep‐tagged DRE2 (natural protein)
chain: not shown
notes: DRE2/CIAPIN1, Arabidopsis thaliana, AT5G18400; printed also as 'DRE2-Strep'; also called DRE2‐Strep; source: E. coli cell extract, captured on a Streptavidin sensor chip
B1 was tested, and the Kd was 3.3 ± 0.9 µM.
